Test results: patent US20030134779A1, “Method and composition for treatment and/or prevention of antibiotic-resistant microorganism infections” (priority 2002, published 2003)

What was measured:
[1] = test system: β-lactamase activity of S. aureus SHY97-4320; assay: β-lactamase activity, nitrocefin assay, human LF; assay type: cell-based, Staphylococcus aureus
Method: Penicillin G was purchased from Novopharm Limited (Toronto, Ontario, Canada). […] Antibiotic stock solutions were always freshly prepared and diluted to the desired concentration in Mueller Hinton broth (MHB) medium (Difco Laboratories, Detroit, MI). β-Lactamase activity was measured using a quantitative spectrophotometric assay with the chromogenic cephalosporin nitrocefin. Bacterial cells were first exposed to penicillin and/or LF during 4 and 22-h in broth. At each time point, the number of cfu/ml were determined and cells aliquots were centrifuged.
The pellets were suspended in 10 mM HEPES buffer (pH 7.4) to an OD415 nm of 0.4 for PC-1 and 4 for strain SHY97-4320. Nitrocefin (100 μM) was added to 20 μl of cells in a final volume of 200 μl. Hydrolysis was measured at 486 nm on a Spectra Max 250 Microplate Spectrophotometer System of Molecular Device (Fisher Scientific, Ottawa, Canada). β-Lactamase activity was expressed as ΔO.D.486 nm/min and corrected for bacterial OD.

[2] = test system: β-lactamase activity of S. aureus PC-1; assay: β-lactamase activity, nitrocefin assay, human LF; assay type: cell-based; conditions: incubation for 4 h
β-lactamase activity of S. aureus PC-1, sequence (P00807 25-281): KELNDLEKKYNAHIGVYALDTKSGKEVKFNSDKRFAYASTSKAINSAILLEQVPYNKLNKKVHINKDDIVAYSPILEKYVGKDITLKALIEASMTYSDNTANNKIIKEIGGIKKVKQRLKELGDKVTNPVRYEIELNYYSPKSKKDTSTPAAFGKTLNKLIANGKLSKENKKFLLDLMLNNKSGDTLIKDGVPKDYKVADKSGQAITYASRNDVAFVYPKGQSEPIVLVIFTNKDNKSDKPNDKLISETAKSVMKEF

β-lactamase activity of S. aureus SHY97-4320, sequence (P00807 25-281): as above

B1: human LF: Human LF (Sigma) (protein, UniProt P02788 20-710, looked up)
Lactotransferrin: GRRRSVQWCAVSQPEATKCFQWQRNMRKVRGPPVSCIKRDSPIQCIQAIAENRADAVTLDGGFIYEAGLAPYKLRPVAAEVYGTERQPRTHYYAVAVVKKGGSFQLNELQGLKSCHTGLRRTAGWNVPIGTLRPFLNWTGPPEPIEAAVARFFSASCVPGADKGQFPNLCRLCAGTGENKCAFSSQEPYFSYSGAFKCLRDGAGDVAFIRESTVFEDLSDEAERDEYELLCPDNTRKPVDKFKDCHLARVPSHAVVARSVNGKEDAIWNLLRQAQEKFGKDKSPKFQLFGSPSGQKDLLFKDSAIGFSRVPPRIDSGLYLGSGYFTAIQNLRKSEEEVAARRARVVWCAVGEQELRKCNQWSGLSEGSVTCSSASTTEDCIALVLKGEADAMSLDGGYVYTAGKCGLVPVLAENYKSQQSSDPDPNCVDRPVEGYLAVAVVRRSDTSLTWNSVKGKKSCHTAVDRTAGWNIPMGLLFNQTGSCKFDEYFSQSCAPGSDPRSNLCALCIGDEQGENKCVPNSNERYYGYTGAFRCLAENAGDVAFVKDVTVLQNTDGNNNEAWAKDLKLADFALLCLDGKRKPVTEARSCHLAMAPNHAVVSRMDKVERLKQVLLHQQAKFGRNGSDCPDKFCLFQSETKNLLFNDNTECLARLHGKTTYEKYLGPQYVAGITNLKKCSTSPLLEACEFLRK
- β-lactamase activity ([1]; 1 mg/ml human LF added at the same time as 8 μg/ml penicillin G, P<0.001): an important reduction of the β-lactamase activity
- β-lactamase activity ([1]; human LF 1 mg/ml alone): no β-lactamase activity
- reduction of β-lactamase activity [2]: 50%
